Laboratory results reported in patent publication US8497083B2, “Fructosyl amino acid oxidase” (priority 2009, dated 2013).

Experiments:
[1] = molecular target: T1, fructosyl amino acid oxidase from Phaeosphaeria nodorum (PnFPOX, SEQ ID NO: 1) variant N56A (Parastagonospora nodorum, UniProt Q0UIL6, N56A); test: Oxidase activity kinetics (4AA/TODB/POD), PnFPOX N56A mutant; format: biochemical; conditions: purified enzyme, 25° C., pH 7.0
Description: (§1) As used herein “oxidase activity” is an enzymatic activity (Vmax) of the fructosyl amino acid oxidase to catalyze oxidation of fructosyl amino acid to generate 2-keto-D-glucose and the corresponding amino acid while utilizing oxygen as an electron acceptor. The oxidase activity may be assayed by measuring the amount of generated H2O2 by any methods known in the art, including by way of non-limiting example, reagents for H2O2 detection such as […] (4-aminoantipyrine/N,N-Bis(4-sulfobutyl)-3-methylaniline disodium salt/horseradish peroxidase) or by Pt electrode. As used herein in the context of the relative or quantitative activity, the oxidase activity is specifically defined to be the mole amount of the substrate (fructosyl amino acid) oxidized per unit time measured by the amount of generated H2O2 at 25° C. in 10 mM PPB, pH 7.0, 1.5 mM TODB, 2 U/ml horseradish peroxidase (POD), and 1.5 mM 4-aminoantipyrine (4AA). The formation of quinoneimine dye may be measured spectrophotometrically at 546 nm.
(§2) Escherichia coli BL21 (DE3) cells harboring expression vectors of N1-1 FAOD (SEQ ID NO: 2) mutants were grown in 150 ml of LB medium containing 50 μg/ml kanamycin at 37° C. After reaching an A660 value of 0.6, 0.3 mM IPTG was added and incubated at 25° C. for an additional 5 hours. The cells were collected by centrifugation and washed twice with 0.85% NaCl.aq. Then, the cells were resuspended in 10 mM Potassium Phosphate Buffer (PPB) pH 7.0 and lysed by ultrasonic homogenizer. The lysate was centrifuged at 10,000×g, 4° C. for 10 min, and the supernatant was centrifuged at 50,000 rpm, 4° C. for 60 min, then the supernatant was dialyzed against 10 mM PPB (pH 7.0). The oxidase activity was assayed at 25° C. in 10 mM PPB, pH 7.0, 1.5 mM TODB, 2 U/ml horseradish peroxidase (POD), and 1.5 mM 4-aminoantipyrine (4AA) in the presence of substrates (0.2, 0.5, 0.75, 1, 2, 5 mM f-^αVal […]). The formation of quinoneimine dye was measured spectrophotometrically at 546 nm. The dehydrogenase activity was assayed at 25° C. in 10 mM PPB (pH 7.0), 0.6 mM DCIP, and 6 mM methoxy PMS (mPMS) in the presence of substrates (0.2, 0.5, 1, 2, 5 mM f-^αVal or 5 mM f-^αVal-His).
(§3) Mutations were introduced using site-directed mutagenesis as in Example 1, and BL21 (DE3) cells were transformed with an expression vector containing wild-type or mutant PnFPOX (SEQ ID NO: 1). The cultured cells were resuspended in 10 mM PPB, pH 7.0, and lysed by sonication. The lysate was centrifuged at 10,000 g at 4° C. for 20 min, and the supernatant was centrifuged at 50,000 rpm at 4° C. for 60 min. The oxidase and dehydrogenase activities were measured as in Example 1.
(§4) BL21 (DE3) transformed with pEPN (pET28a-PnFPOX)-N56A was grown aerobically at 37° C. in LB medium (2 l) containing 50 μg kanamycin ml^−1. […]

[2] = molecular target: T1, fructosyl amino acid oxidase from Phaeosphaeria nodorum (PnFPOX, SEQ ID NO: 1) variant N56A; test: Dehydrogenase activity kinetics (mPMS/DCIP), PnFPOX N56A mutant; format: biochemical; conditions: purified enzyme, 25° C., pH 7.0
Description: (§5) As used herein, “dehydrogenase activity” is an enzymatic activity (Vmax) of the fructosyl amino acid oxidase to catalyze oxidation of fructosyl amino acid to generate 2-keto-D-glucose and the corresponding amino acid while utilizing an electron mediator other than oxygen as an electron acceptor. The dehydrogenase activity may be assayed by measuring the amount of electrons transferred to the mediator using, for example, one of mPMS/DCIP (1-methoxy-5-methylphenazinium methylsulfate/2,6-dichloroindophenol), cPES (trifluoro-acetate-1-(3-carboxy-propoxy)-5-ethyl-phenanzinium, NA BM31—1144 (N,N-bis-(hydroxyethyl)-3-methoxynitrosoaniline hydrochloride, NA BM31—1008 (N,N-bis-hydroxyethyl-4-nitrosoaniline) and N—N-4-dimethyl-nitrosoaniline.
(§6) As used herein in the context of the relative or quantitative activity, the dehydrogenase activity is specifically defined to be the mole amount of the substrate (fructosyl amino acid) oxidized per unit time measured by the amount of electrons transferred to the mediator at 25° C. in 10 mM PPB (pH 7.0), 0.6 mM DCIP, and 6 mM methoxy PMS (mPMS).
as §2
as §3, with “1. […]” for “1.”

[3] = test system: CC(C)[C@H](NCC1(O)OC[C@@H](O)[C@@H](O)[C@@H]1O)C(=O)N[C@@H](Cc1c[nH]cn1)C(=O)O; test: Oxidase activity kinetics (4AA/TODB/POD), PnFPOX wild type; format: biochemical, Phaeosphaeria nodorum; conditions: other: 4AA/TODB/POD, 25° C., pH 7.0
Description: as §1, §2, §3
(§7) The oxidase and dehydrogenase activities of the N56A mutant FAOD were measured. […]

[4] = test system: CC(C)[C@H](NCC1(O)OC[C@@H](O)[C@@H](O)[C@@H]1O)C(=O)O; test: as above; format: biochemical, Phaeosphaeria nodorum; conditions: other: 4AA/TODB/POD, 25° C., pH 7.0
Description: as §1, §2, §3, §7

[5] = test system: CC(C)[C@H](NCC1(O)OC[C@@H](O)[C@@H](O)[C@@H]1O)C(=O)O; test: Dehydrogenase activity kinetics (mPMS/DCIP), PnFPOX wild type; format: biochemical, Phaeosphaeria nodorum; conditions: other: mPMS/DCIP, 25° C., pH 7.0
Description: As used herein, “dehydrogenase activity” is an enzymatic activity (Vmax) of the fructosyl amino acid oxidase to catalyze oxidation of fructosyl amino acid to generate 2-keto-D-glucose and the corresponding amino acid while utilizing an electron mediator other than oxygen as an electron acceptor. […]
as §6
Escherichia coli BL21 (DE3) cells harboring expression vectors of N1-1 FAOD (SEQ ID NO: 2) mutants were grown in 150 ml of LB medium containing 50 μg/ml kanamycin at 37° C. […] The formation of quinoneimine dye was measured spectrophotometrically at 546 nm. […]
Mutations were introduced using site-directed mutagenesis as in Example 1, and BL21 (DE3) cells were transformed with an expression vector containing wild-type or mutant PnFPOX (SEQ ID NO: 1). […] The oxidase and dehydrogenase activities were measured as in Example 1.
as §7

[6] = test system: CC(C)[C@H](NCC1(O)OC[C@@H](O)[C@@H](O)[C@@H]1O)C(=O)N[C@@H](Cc1c[nH]cn1)C(=O)O; test: Oxidase activity kinetics (4AA/TODB/POD), PnFPOX N56A mutant; format: biochemical, Phaeosphaeria nodorum; conditions: other: purified enzyme, 25° C., pH 7.0
Description: as §1, §2, §3, §4

[7] = test system: CC(C)[C@H](NCC1(O)OC[C@@H](O)[C@@H](O)[C@@H]1O)C(=O)O; test: as above; format: biochemical, Phaeosphaeria nodorum; conditions: other: purified enzyme, 25° C., pH 7.0
Description: as §1, §2, §3, §4

[8] = test system: CC(C)[C@H](NCC1(O)OC[C@@H](O)[C@@H](O)[C@@H]1O)C(=O)N[C@@H](Cc1c[nH]cn1)C(=O)O; test: Dehydrogenase activity kinetics (mPMS/DCIP), PnFPOX N56A mutant; format: biochemical, Phaeosphaeria nodorum; conditions: other: purified enzyme, 25° C., pH 7.0
Description: as §5, §6, §2
as §3, with “1. […]” for “1.”

[9] = test system: CC(C)[C@H](NCC1(O)OC[C@@H](O)[C@@H](O)[C@@H]1O)C(=O)O; test: as above; format: biochemical, Phaeosphaeria nodorum; conditions: other: purified enzyme, 25° C., pH 7.0
Description: as §5, §6, §2
as §3, with “1. […]” for “1.”

[10] = substrate: CC(C)[C@H](NCC1(O)OC[C@@H](O)[C@@H](O)[C@@H]1O)C(=O)O; test: Oxidase activity kinetics (4AA/TODB/POD), N1-1 FAOD wild type; format: biochemical, Pichia sp. N1-1; conditions: 25° C., pH 7.0
Description: as §1, §2
(§8) The recombinant FAOD was purified as follows. First, a water-soluble fraction containing the enzyme was prepared from recombinant Escherichia coli. E. coli containing the expression vector was cultured in 7 L LB medium (37° C., in 10 L fermenter, 50 μg/ml ampicillin), then the expression was induced with IPTG (final concentration: 0.3 mM) at about OD660=0.7 and culture temperature was lowered to 30° C. The cells were suspended in 100 mM PPb (pH 7.0) and disrupted four times using a French press. […]

[11] = substrate: CC(C)[C@H](NCC1(O)OC[C@@H](O)[C@@H](O)[C@@H]1O)C(=O)O; test: Dehydrogenase activity kinetics (mPMS/DCIP), N1-1 FAOD wild type; format: biochemical, Pichia sp. N1-1; conditions: 25° C., pH 7.0
Description: as §5, §6, §2, §8

[12] = substrate: CC(C)[C@H](NCC1(O)OC[C@@H](O)[C@@H](O)[C@@H]1O)C(=O)O; test: Oxidase activity kinetics (4AA/TODB/POD), N1-1 FAOD N47A mutant; format: biochemical, Pichia sp. N1-1; conditions: 25° C., pH 7.0
Description: as §1, §2, §8

[13] = substrate: CC(C)[C@H](NCC1(O)OC[C@@H](O)[C@@H](O)[C@@H]1O)C(=O)O; test: Dehydrogenase activity kinetics (mPMS/DCIP), N1-1 FAOD N47A mutant; format: biochemical, Pichia sp. N1-1; conditions: 25° C., pH 7.0
Description: as §5, §6, §2, §8

T1 sequence (Q0UIL6 whole entry N56A): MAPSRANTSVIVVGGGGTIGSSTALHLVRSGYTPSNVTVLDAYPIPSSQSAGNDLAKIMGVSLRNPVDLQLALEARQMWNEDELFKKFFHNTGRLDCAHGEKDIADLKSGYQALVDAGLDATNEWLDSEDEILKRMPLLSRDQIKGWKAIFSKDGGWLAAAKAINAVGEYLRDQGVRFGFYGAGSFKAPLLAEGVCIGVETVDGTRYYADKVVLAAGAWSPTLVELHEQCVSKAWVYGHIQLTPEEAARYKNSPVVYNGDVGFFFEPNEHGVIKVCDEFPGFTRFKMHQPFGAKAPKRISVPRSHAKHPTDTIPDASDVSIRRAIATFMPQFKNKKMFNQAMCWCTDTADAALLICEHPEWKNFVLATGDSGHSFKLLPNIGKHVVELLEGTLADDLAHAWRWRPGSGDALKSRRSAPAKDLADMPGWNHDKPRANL

With `CC(C)[C@H](NCC1(O)OC[C@@H](O)[C@@H](O)[C@@H]1O)C(=O)N[C@@H](Cc1cnc[nH]1)C(=O)O` (stereo partly shown) [f-αValHis, fructosyl valyl histidine] the Vmax [1] was 1.90 U/mg and the Vmax [2] was 3.40 U/mg.

“fructosyl amino acid oxidase from Phaeosphaeria nodorum (PnFPOX), wild type, SEQ ID NO: 1 (Parastagonospora nodorum SN15)” showed a Km [3] of 200 µM, a Vmax [3] of 2.97 U/mg and a Km [4] of 640 µM. For the same molecule, the Vmax [4] was 27.6 U/mg, the Km [5] was 1100 µM and the Vmax [5] was 28.0 U/mg.

In the case of “fructosyl amino acid oxidase from Phaeosphaeria nodorum (PnFPOX, SEQ ID NO: 1) variant N56A (Parastagonospora nodorum SN15; N56A)”, the Km [6] is reported as 92 µM, the Km [7] is reported as 86 µM and the Km [8] is reported as 74 µM. It also gave a Km [9] of 1600 µM.

B1: fructosyl amino acid oxidase from Pichia sp. N1-1 (N1-1 FAOD), wild type, SEQ ID NO: 2 (Pichia sp. N1-1) (protein)
chain: MESIIIVGAGTFGLSTALQLARDGYKNIKCFDKFPVPSEIAAGNDSNKIFHYDYVAPLAKPNSKERLSLEALHLWKTDPVYKPYYHPVGFILAASSDAPLLHDKEYYEELQKNGLRNYRYISTPEEFREYLPILKGPLPNWRGYVLDGDNGWLHARDSLKSAYEECKRLGVEFVFGDDGEIVELLNENGKLTGIRARSGAIFSAQKYVLSSGANAVTLLNFQRQLEGKCFTLAHFKVTDEEAKAFKSLPVLFNAEKGFFFEADENNEIKICNEYPGFTHTNESGESIPLYRMEIPLESALEIRQYLKETMPQFADRPFTKTRICWCTDSPDMQLILCTHPEYTNLIVASGDSGNSFKIMPIIGKYVSKVVTKGDKGLDPEDKECWKWRPETWDKRGQVRWGGRYRVADLNEIEEWVSVENPTPHKLE
notes: 427 aa
In the case of B1, the Km ([10]; other: crude preparation) is reported as 2640 µM, the Vmax ([10]; other: crude preparation) is reported as 0.71 U/mg and the Km ([10]; other: purified enzyme) is reported as 4800 µM. The Vmax ([10]; other: purified enzyme) was 9.3 U/mg, the Km ([11]; other: crude preparation) was 3220 µM and the Vmax ([11]; other: crude preparation) was 0.60 U/mg. It also gave a Km ([11]; other: purified enzyme) of 4600 µM and a Vmax ([11]; other: purified enzyme) of 9.8 U/mg.

B2: fructosyl amino acid oxidase from Pichia sp. N1-1 (N1-1 FAOD, SEQ ID NO: 2) variant N47A (Pichia sp. N1-1; N47A) (protein)
chain: MESIIIVGAGTFGLSTALQLARDGYKNIKCFDKFPVPSEIAAGNDSAKIFHYDYVAPLAKPNSKERLSLEALHLWKTDPVYKPYYHPVGFILAASSDAPLLHDKEYYEELQKNGLRNYRYISTPEEFREYLPILKGPLPNWRGYVLDGDNGWLHARDSLKSAYEECKRLGVEFVFGDDGEIVELLNENGKLTGIRARSGAIFSAQKYVLSSGANAVTLLNFQRQLEGKCFTLAHFKVTDEEAKAFKSLPVLFNAEKGFFFEADENNEIKICNEYPGFTHTNESGESIPLYRMEIPLESALEIRQYLKETMPQFADRPFTKTRICWCTDSPDMQLILCTHPEYTNLIVASGDSGNSFKIMPIIGKYVSKVVTKGDKGLDPEDKECWKWRPETWDKRGQVRWGGRYRVADLNEIEEWVSVENPTPHKLE
notes: crude and purified
In the case of B2, the Km ([12]; other: crude preparation) is reported as 1420 µM, the Vmax ([12]; other: crude preparation) is reported as 0.11 U/mg and the Km ([12]; other: purified enzyme) is reported as 2200 µM. The Vmax ([12]; other: purified enzyme) was 1.4 U/mg, the Km ([13]; other: crude preparation) was 9130 µM and the Vmax ([13]; other: crude preparation) was 0.82 U/mg. For the same molecule, the Km ([13]; other: purified enzyme) was 6200 µM and the Vmax ([13]; other: purified enzyme) was 6.0 U/mg.
